The values that follow come from paper PMC9371924, “Exploration of DNA processing features unravels novel properties of ICE conjugation in Gram-positive bacteria”.

The target of data set [1] is T1, RelSt3 (MOBT relaxase) (Streptococcus thermophilus (ICESt3)) (UniProt Q935T7).
T1 sequence: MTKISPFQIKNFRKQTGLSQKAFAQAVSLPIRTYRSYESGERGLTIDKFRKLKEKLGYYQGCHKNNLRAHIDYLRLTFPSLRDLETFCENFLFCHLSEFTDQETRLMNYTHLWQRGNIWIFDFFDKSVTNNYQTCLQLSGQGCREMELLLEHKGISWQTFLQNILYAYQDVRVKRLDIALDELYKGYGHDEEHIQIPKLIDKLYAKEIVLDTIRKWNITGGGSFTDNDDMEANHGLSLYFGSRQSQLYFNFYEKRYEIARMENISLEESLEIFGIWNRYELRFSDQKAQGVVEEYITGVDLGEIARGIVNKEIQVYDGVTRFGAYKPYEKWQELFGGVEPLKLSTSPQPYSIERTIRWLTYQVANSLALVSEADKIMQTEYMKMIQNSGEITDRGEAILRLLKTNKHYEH
Nature of the data set: EMSA. The note with it: PAGE EMSA: 20 mM Tris-HCl (pH not stated), 500 mM NaCl, 100 ug/ml salmon sperm DNA, 0.11 uM DNA, 15 min 37 C, gel run at 4 C; agarose EMSA: 400 ng DNA in …. A general note: In EMSA bound probe runs differently from free probe, usually more slowly.

In data set [2] the target is T2, RelSt3 (MOBT relaxase) (Streptococcus thermophilus (ICESt3)) (UniProt Q935T7).
T2 sequence: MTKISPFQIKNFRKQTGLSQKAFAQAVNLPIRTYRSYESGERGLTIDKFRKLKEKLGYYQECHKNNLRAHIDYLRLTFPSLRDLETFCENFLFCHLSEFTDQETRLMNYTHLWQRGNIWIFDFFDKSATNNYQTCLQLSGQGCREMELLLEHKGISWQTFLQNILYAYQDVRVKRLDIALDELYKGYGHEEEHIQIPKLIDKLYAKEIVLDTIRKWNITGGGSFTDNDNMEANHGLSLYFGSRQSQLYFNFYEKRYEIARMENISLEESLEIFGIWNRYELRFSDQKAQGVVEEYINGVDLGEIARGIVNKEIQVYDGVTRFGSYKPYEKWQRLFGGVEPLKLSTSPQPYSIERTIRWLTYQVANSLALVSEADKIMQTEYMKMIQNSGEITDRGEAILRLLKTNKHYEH
Briefly: EMSA. Particulars: PAGE EMSA: 20 mM Tris-HCl (pH not stated), 500 mM NaCl, 100 ug/ml salmon sperm DNA, 0.11 uM DNA, 15 min 37 C, gel run at 4 C; agarose EMSA: 400 ng DNA in …. The source holds these as a separate data set.

The target of data set [3] is T3, RelSt3 (MOBT relaxase) (Streptococcus thermophilus (ICESt3), UniProt Q935T7 1-410).
T3 sequence: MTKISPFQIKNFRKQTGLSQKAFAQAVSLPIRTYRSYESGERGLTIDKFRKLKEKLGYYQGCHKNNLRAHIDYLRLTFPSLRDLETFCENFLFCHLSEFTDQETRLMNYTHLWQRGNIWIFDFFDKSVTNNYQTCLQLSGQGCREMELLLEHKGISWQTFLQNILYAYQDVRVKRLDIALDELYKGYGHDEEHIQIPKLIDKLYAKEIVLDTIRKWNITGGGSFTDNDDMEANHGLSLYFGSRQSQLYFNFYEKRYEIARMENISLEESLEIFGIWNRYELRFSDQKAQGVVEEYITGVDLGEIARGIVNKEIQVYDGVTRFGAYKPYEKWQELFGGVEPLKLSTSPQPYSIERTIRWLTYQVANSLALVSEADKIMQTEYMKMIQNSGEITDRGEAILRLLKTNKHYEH
Briefly: EMSA; PAGE EMSA: 20 mM Tris-HCl (pH not stated), 500 mM NaCl, 100 ug/ml salmon sperm DNA, 0.11 uM DNA, 15 min 37 C, gel run at 4 C; agarose EMSA: 400 ng DNA in 20 ul, 15 min 37 C. Particulars: protein: recombinant, tags: N-terminal 6xHis-TEV (pSKB3), label: 5' 6-FAM, blunt.

Data set [4] addresses T3, RelSt3 (MOBT relaxase). Briefly: EMSA; up to 6.4 uM; PAGE EMSA: 20 mM Tris-HCl (pH not stated), 500 mM NaCl, 100 ug/ml salmon sperm DNA, 0.11 uM DNA, 15 min 37 C, gel run at 4 C; agarose EMSA: 400 ng DNA in 20 ul, 15 min 37 C. The note with it: protein: recombinant; tags: N-terminal 6xHis-TEV (pSKB3); label: 5' 6-FAM; blunt.
Data set [5] addresses T3, RelSt3 (MOBT relaxase). Nature of the data set: EMSA; data not shown; PAGE EMSA: 20 mM Tris-HCl (pH not stated), 500 mM NaCl, 100 ug/ml salmon sperm DNA, 0.11 uM DNA, 15 min 37 C, gel run at 4 C; agarose EMSA: 400 ng DNA in 20 ul, 15 min 37 C. Particulars: protein: recombinant; tags: N-terminal 6xHis-TEV (pSKB3); label: 5' 6-FAM; blunt.
For data set [6], the target named is T3, RelSt3 (MOBT relaxase). Nature of the data set: EMSA; apparent Kd; PAGE EMSA: 20 mM Tris-HCl (pH not stated), 500 mM NaCl, 100 ug/ml salmon sperm DNA, 0.11 uM DNA, 15 min 37 C, gel run at 4 C; agarose EMSA: 400 ng DNA in 20 ul, 15 min 37 C. The note with it: protein: recombinant; tags: N-terminal 6xHis-TEV (pSKB3); label: 5' 6-FAM; blunt; possible cruciform.

The target in the next data set is T4, RelSt3 R32A-R35A (Streptococcus thermophilus (ICESt3), UniProt Q935T7 1-410, R32A;R35A).
T4 sequence: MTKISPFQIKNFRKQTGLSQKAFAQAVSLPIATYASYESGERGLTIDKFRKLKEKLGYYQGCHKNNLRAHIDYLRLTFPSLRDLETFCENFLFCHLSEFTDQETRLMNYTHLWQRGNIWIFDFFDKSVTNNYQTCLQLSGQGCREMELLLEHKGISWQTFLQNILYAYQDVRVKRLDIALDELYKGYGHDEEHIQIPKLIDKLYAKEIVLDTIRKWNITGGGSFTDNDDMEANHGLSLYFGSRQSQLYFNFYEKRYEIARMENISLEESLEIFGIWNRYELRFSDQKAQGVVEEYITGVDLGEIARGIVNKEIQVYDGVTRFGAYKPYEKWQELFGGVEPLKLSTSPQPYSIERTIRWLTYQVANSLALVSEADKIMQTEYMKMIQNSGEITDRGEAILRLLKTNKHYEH
Briefly: EMSA; up to 6.4 uM; PAGE EMSA: 20 mM Tris-HCl (pH not stated), 500 mM NaCl, 100 ug/ml salmon sperm DNA, 0.11 uM DNA, 15 min 37 C, gel run at 4 C; agarose EMSA: 400 ng DNA in 20 ul, 15 min 37 C. The note with it: protein: recombinant; tags: N-terminal 6xHis-TEV (pSKB3); label: 5' 6-FAM; blunt; possible cruciform.

Data set [7] addresses T5, RelSt3(64-410), HTH deleted (Streptococcus thermophilus (ICESt3), UniProt Q935T7 64-410).
T5 sequence: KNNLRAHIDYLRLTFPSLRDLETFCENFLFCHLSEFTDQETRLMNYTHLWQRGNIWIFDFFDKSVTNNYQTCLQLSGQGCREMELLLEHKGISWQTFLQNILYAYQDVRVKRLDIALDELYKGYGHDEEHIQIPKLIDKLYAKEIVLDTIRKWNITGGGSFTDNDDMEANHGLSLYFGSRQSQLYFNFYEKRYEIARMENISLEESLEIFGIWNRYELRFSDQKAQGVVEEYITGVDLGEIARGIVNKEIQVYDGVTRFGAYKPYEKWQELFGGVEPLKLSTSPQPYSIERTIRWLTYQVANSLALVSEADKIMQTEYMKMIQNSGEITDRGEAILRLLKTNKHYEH
Nature of the data set: EMSA; up to 1.75 uM; PAGE EMSA: 20 mM Tris-HCl (pH not stated), 500 mM NaCl, 100 ug/ml salmon sperm DNA, 0.11 uM DNA, 15 min 37 C, gel run at 4 C; agarose EMSA: 400 ng DNA in 20 ul, 15 min 37 C. The note with it: protein: recombinant; tags: N-terminal 6xHis-TEV (pSKB3); label: 5' 6-FAM; blunt; possible cruciform.

Take “GAGACTTCAACCCCCGATTTCTAATAGGGGGGTTACATTTTCAAGATTTAGAAAGTGTGTCACTTTGGTCCAAAAAGTGTGTCACTTAGTCAAAAGGAG / CTCCTTTTGACTAAGTGACACACTTTTTGGACCAAAGTGACACACTTTCTAAATCTTGA [ori50 (ss nic region + ds IR2)]”: the Kd in data set [1] was determined as 3200 nM.

For the molecule “AAAAAGAATTCTGTTCATCATGGGCTAGGACAAGGGCAAGGACAAGCCTGACCACAGGTCAGGCGCAGACCGTAGCCCGAAGTTCCTAGGCCATGATGAGACTTCAACCCCCGATTTCTAATAGGGGGGTTACATTTGGCCAAAGTGCCACGTCCACCCCTCCTCATTCCTTGTGGGAGTTGGGATTTCAAGATTTAGAAAGTGTGTCACTTTGGTCCAAAAAGTGTGTCACTTAGTCAAAAGGAGGTGTTCCCATGAATGACTAAAATAAGTCCCTTTCAGATCAAGGGCCCTTTTT (double strand) [oriT1 PCR product]”, the binding result in data set [2] was “binds”.

B1: ori41M6 (IR2b mutated) (dsDNA)
DNA 1: TCAAGATTTAGAAAGTGTGTCACTTTGGTCCAAACGATACGCTGACGAGTCAAAAGGAG
DNA 2: CTCCTTTTGACTCGTCAGCGTATCGTTTGGACCAAAGTGACACACTTTCTAAATCTTGA
As for B1, the binding result with RelSt3 (MOBT relaxase) [3] is “no binding”.

B2: non-specific dsDNA (dsDNA)
DNA 1: CTTACCGATAAGAACTTACCGCTCCTATGAATCTGGGGAAAGAGGTCTGACCATTGACAAGTTTCGAAAACTCAAAGAAAAGC
DNA 2: GCTTTTCTTTGAGTTTTCGAAACTTGTCAATGGTCAGACCTCTTTCCCCAGATTCATAGGAGCGGTAAGTTCTTATCGGTAAG
As for B2, the binding result with RelSt3 (MOBT relaxase) [4] is given as “no binding”.

B3: ori41M5 (IR2a mutated) (dsDNA)
DNA 1: TCAAGATTTAGACGATACGCTGACGTGGTCCAAAAAGTGTGTCACTTAGTCAAAAGGAG
DNA 2: CTCCTTTTGACTAAGTGACACACTTTTTGGACCACGTCAGCGTATCGTCTAAATCTTGA
As to B3, the binding result with RelSt3 (MOBT relaxase) [3] is listed as “no binding”.

B4: ori47 (IR1-IR2 spacer) (dsDNA)
DNA 1: ACATTTGGCCAAAGTGCCACGTCCACCCCTCCTCATTCCTTGTGGGAGTTGGGATTTCAAGATTTAGA
DNA 2: TCTAAATCTTGAAATCCCAACTCCCACAAGGAATGAGGAGGGGTGGACGTGGCACTTTGGCCAAATGT
On to B4, for which the binding result with RelSt3 (MOBT relaxase) [5] is “no binding”.

B5: ori41 (ori41WT) dsDNA, full IR2 (dsDNA)
DNA 1: TCAAGATTTAGAAAGTGTGTCACTTTGGTCCAAAAAGTGTGTCACTTAGTCAAAAGGAG
DNA 2: CTCCTTTTGACTAAGTGACACACTTTTTGGACCAAAGTGACACACTTTCTAAATCTTGA
Take B5: the Kd with RelSt3 (MOBT relaxase) [6] is approximately 1600 nM. In addition, the binding result (with RelSt3 R32A-R35A; in data set [7]) was “no binding” in each case.

B6: ori46 (IR1, nic site) (dsDNA)
DNA 1: GAGACTTCAACCCCCGATTTCTAATAGGGGGGTTACAT
DNA 2: ATGTAACCCCCCTATTAGAAATCGGGGGTTGAAGTCTC
Take B6: the binding result with RelSt3 (MOBT relaxase) [4] is recorded as “no binding”.

B7: ori41M11 (IR2 replaced by IR of same length and GC%) (dsDNA)
DNA 1: TCAAGATTTAGACGATACGCTATCGTGGTCCAAACGATACGCTATCGAGTCAAAAGGAG
DNA 2: CTCCTTTTGACTCGATAGCGTATCGTTTGGACCACGATAGCGTATCGTCTAAATCTTGA
For B7, the binding result with RelSt3 (MOBT relaxase) [3] (possible hairpin) is “no binding”.
